From the nanobody polyreactivity screen of Harvey et al. (2022)

Test: yeast display, Sf9 membrane polyspecificity reagent, FACS + sequencing; frameworks hold sequencing errors
Summary of the method: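 Galactose induction of a Saccharomyces cerevisiae BJ5465 synthetic nanobody display library ran 36–48 hours. The cells were then stained for 1 hour at 4 °C with 10% biotinylated, detergent-solubilized Sf9 membrane reagent, pulled down on streptavidin microbeads and FACS-sorted into low and high (top ~1%) gates on expression and reagent-binding fluorescence. Labels for polyreactivity follow the gate of origin.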

Row | Sequence | polyreactivity (PSR sort gate)
1 | QVQLVESGGGLVQAGGSLRLSCAASGRTFRRNAMAWYRKAPGKERELVAAISGGGSTNYADSVKGRFTISRDNAKNTVYLQMNSLKPEDTAVYYCNKRGTIWSGFWGQGTQVTVSS | high polyreactivity
2 | QVQLVESGGGLVQAGGSLRLSCAASGNIFAPNAMGWDRQAPGKERELVAAISRSGGSTHYADSVKGRFTISRDNAKNTVYLQMNSLKPEDTAVYYCAAGWYGRYTSKMGYWGQGTQVTVSS | high polyreactivity
3 | QVQLVESGGGLVQAGGSLRLSCAASGYTFVYNALGWYRQAPGKEREFVAAITWSGTSTRYADSVKGRFTISRDNAKNTVYIQMTSLQPEDTAVYYCAARRRSAQSGSYNHWGQGTQVTVSS | high polyreactivity
4 | QVQLVESGGGLVQAGGSLRLSCAASGRTFIGNAMGWYRQAPGKERELVATITSSAGTTYYADSVKGRFTISRDNAKNTVYLQMNSLKPEDTAVYYCAKRIWRSYPYRAYYSEFGYWGQGTQVTVSS | high polyreactivity
5 | QVQLVESGGGLVQAGGSLRLSCAASGRTFYKYGMGWYRQAPGKERELVARINSNGGSTYYADSVKGRFTISRDNAKNTVYLQMNSLKPEDTAVYYCAKRGSYRTKPASEYDSWGQGTQVTVSS | low polyreactivity
6 | QVQQQESGGGLVQAGGSLRQSYAASGYIFPSLAMGWYRQAPGKEREFVAAIGRGSTNNYADSVKGRFTISRDNAKNTAYQQMNSLKPEDTAVYYSAAAASPLTRHLYWGQGTQVNVSS | low polyreactivity
7 | QVQLQESGGGLVQAVCSRRLSCAASGSFSSRDAMGWYRQAPGTEREFVATIAVGGNTNYADSAKGRFTISRDNAKITVYLQMNSPKPEDTAVYYRAAVIDFDIFTYWGQGTQVTVRS | high polyreactivity
8 | QVQLVESGGGLDQAGGSLRLSCAASGRTLYRYAMGWYRQSPGKERELVAAIRSGGRTNYADSVKGRFTISRDNAKNTVYLQLNSLKPEDTAVYYCAARTLRYPSTYDYWGQGTQVTVSS | high polyreactivity
9 | QVQLVESGGGLVQAGGSLRLSCAASGSTFVGNAMGWYRQAPGKERELVAAISSDSSTYYADSVKGRFTISRDNAKNTVYLQMNSLKPEDTAVYYCAEYYPGYGYGYWGQGTQVTVSS | low polyreactivity
10 | QVQLVESGGGLVQAGGSLRLSCAASGSTYYANAMGWYRQAPGKEREFVATISSSDGSTYYADSVKGRFTISRDNAMNTVYLQMYSLKPEDTAVYYCNAADYPEAHSTYYYWGQGTLVTVSS | low polyreactivity
11 | QVQLVESGGGLVQAGGSLRLSCAASGRIYTMGWYRQAPGKERELVAAISKSGGSTSYADSVKGRFTISRDNAKNTVYLQMNSLKPEDTAVYYCAALHYGRYRMDYWGQGTQVTVSS | high polyreactivity
12 | QVQLVESGGGLVQAGGSLRLSCAASGRIFAVNAMGWYRQAPGKERELVATIRGSGTSTYYADSVKGRFTISRDNAKNTVYLQMNSLKPEDTAVYYCAARGRYRQFNYWGQGTQVTVSS | high polyreactivity
13 | QVQLVESGGGLVQAGGSLRLSCAASGLTFPYNVMGWYRQAPGKERELVASITSVGTTDYADSVKGRFTISRDNAKNTVSVLMNSLKPEVTAVYYCAADVTLFYWWYGKEDYDYWGQGTQVTVSS | low polyreactivity
14 | QVQLVESGGGLVQAGGSLRLSCAASGRTFHIYAMGWYRQAPGKERELVAAIRGRSGSTYYADSVKGRFTISRDNAKNTVYLQMNSLKPEDTAVYYCAAEYWGRYGAPEYDYWGQGTQVTVSS | high polyreactivity
15 | QVQLVESVGGLVEAGRILRLSCAATGSTFPYNDLGWYRQAPGKQRELVADISGDSGSTYYADSVKGRFTISRDNAKNTVYLQMKSLKPEDTAVYYCAAEGLHYAGDYGTGYDNWGQGTQLTVSS | low polyreactivity
16 | QVQLVESGGGLVQAGGSLRLSCAASGRIFVGYAMGWYRQAPGKERELVAAISRGGSTNYADSVKGRFTISRDNAKNTVYLQMNSLKPDDTAVYYCAKTYRTRWWGNGGDYWGQGTQVTVSS | high polyreactivity

Row | Sequence | polyreactivity (PSR sort gate)
17 | QVQLVESGGGLVQAGGSLRLSCAASGRIFYVYAMGWYRQAPGKERELVAAINWRGGSTYYADSVKGRFPISRDNAKNTVYLQMNSLKPEDTAVYYCAARWYLYDYWGQGTQVTVSS | low polyreactivity
18 | QDQLVESGGGLVQAGGSLRLSCAASGRILAYYAMGWSRQAPGKERELVAAISRAGSTNYADSVKGRFTISRDNAKNTVYLQMNSLKPEDTAVYYCAARPYRRGYNYWGQGTQVTVSS | high polyreactivity
19 | QVQLVESGGGLVQAGGSLRLSCAASGRIFYYYAMGWYRQAPGKEREFVAAITGRGGSTYYADSVKGRFTISRDNAKNTVYLQMNSLKPEDTAVYYCNAGQYFEYYGWYSRYGYWGQGTQVTVSS | low polyreactivity
20 | QVQLVESGRGLVQAGGSLRLSCAASGSIFSSYAMGWYRQAPGKERELVAAITWSGGRTYYADSVKGRFTISRDNAKNTVYLQMNSLKPEDTAVYYCNAVYLAYGGDYWGQGTQVTVSS | high polyreactivity
21 | QVQLVESVGGLVQAGGSLRLSCAASGITIADNAMGWYRQAPRKERELVAAITSGGSTYYADAVKGRFTISRDNAKNTVYFQLNSLKPEDTGVYYCIVRVRRLFYWARLVAYDYWGQGSQVTVSS | high polyreactivity
22 | QVQLVESGGGLVQAGGSLRLSCAASGSISYRYVMGWYRQAPGKERELVAAITTSGGSTYYADSVKGRFTISRDNAKNTVYLQMNSLKPEDTAVYDCAAKHNVYRYSRYYWGQGTQVTVSS | high polyreactivity
23 | QVKLLESGGGLVQSGGSLRLSCAAYAIIFRWYTMGGYRQAPGKERQLVAAISTSTGSTYYADSVKGRFTISRDNAKNTVYLQMNSLKPEDTAVYYCAADYAYWNYESYYWGQGTQVTVSS | high polyreactivity
24 | QVQLVESGGGLVQEGGRLRISCAATGINFSWYAMGWNRPATGKERELVASITIGGNTNFADSVKGRFTISLYNAKNSVYLQMNSLKREDTAVYYCAAQTFWYGYGGGVYWGQGTQVTVSS | low polyreactivity
25 | QVQLVESGGGLVQAGGSLRLICAASGYTFEYNAMGWSRQAPGKEREFVATITASGDSTYYADSVKGRFTISRDNAKNTVYLQMNSLKPEDTAVYYCATEKRDVYFTAKYDYWGQGTQVTVSS | low polyreactivity
26 | QVQLHESGGGLVQAGGSLRLSCAASGTISYAGPMGWYRQAPGKEREFVAGIGVGSNTNYADSVKGRYTIIRDNAKNTVYLQMTSLKPEDTAVYYCAVGGYAPLGRPYWGQGTQVTVSS | low polyreactivity
27 | QVQHVESRGGLVQAGGSLRLSCAASGITLPKYAMGCYRQAPGKERELAAAISRRGGITYYADSVKGRFTISRDNAKNSVYLQMNSQKPEDTAVYYCAADRTDTRGFDYWGQGTQVTVSS | high polyreactivity
28 | QVQLVESGGGLVQAGGSLRLSCAASVRTFRIYAMGWYRQAPGKERELVAAISWDDGSTYYADSVKGRFTISRDNAKNTVYLQMNSLKPEDTAVYYCAAEYYFVNRGAWYDYWGQGTQVTVSS | high polyreactivity
29 | QVQLVESGGGLVQAGGSLRLSCAASGFTFSTYAMGWYRQAPGKEREFVAAISRGGTRTYYADSVKGRFTISRDNAKNTVYLQMTSLKPEDTAVYYCAARSKARNGYDYWGQGTQVTVSS | high polyreactivity
30 | QVQLVESGGGLVQAGGSLRLSCAASGFIIYKYAMGWYRQAPGKERELVAAISWSGGSTYYADSVKGRFTISRDNAKNTVYFQMNSLKPEDTAVYYCAARQWSQGWYDYWGQGTQVTVSS | high polyreactivity
31 | QVQLVESGGGLVQAGGSLRLSCAASGRIFKAYAMGWSRQAPGKERELVAAITSTGSTYYADSVKGRFTISRDNAKNTVYLQMNSLKPEDTAVYYCNAVRYLEYDWGQGTQVTVSS | high polyreactivity
32 | QVQLVELGGGLVQAGGSLRLSCAASGSTFEVYAMGWYRQAPGKERELVAVINVSDGSTYYADSVKGRFTISRDNAKNTVYLQMNSLKPEDTAVYYCAAYRKGKLRMEYWGQGTQVTVSS | low polyreactivity
